Data reported in patent US7563583B2, “Heregulin variants” (Genentech, Inc., priority 1997, dated 2009).

How the values were obtained:
[1] = biological target: T1, ErbB-3-Ig (Homo sapiens, UniProt P21860); assay: Phage ELISA of phage-displayed HRG-β1 variants, binding to ErbB-3-Ig
T1 construct: expressed the extracellular domain (ECD) of the ErbB-2, ErbB-3, or ErbB-4 receptor fused to a human IgG constant domain; made in house; host or cells: HEK-293 cells, secreted, Protein A purified
Procedure: To produce phage displaying the domains, mutagenesis reaction mixtures were electrotransformed into XL1-Blue™ cells (Stratagene, Inc., La Jolla, Calif.), according to the manufacturer's protocol. The transformed cells were then infected with 10^14 plaque-forming units (pfu) M13K07 helper phage (Promega Corp., Madison, Wis.). Phage stocks (about 10^14 phagemid/mL) were prepared by precipitating culture broths from the cells after 18-24 hours (h) of growth with 20% PEG(2000)/2.5 M NaCl, according to the method of Sambrook and Maniatis, Molecular Cloning a Laboratory Manual Cold Spring Harbor Press 429 (1989). […]
Serial dilutions of soluble ErbB-2/3-Ig (competitor) and a concentration of phage predetermined to give 60% saturation (without competitor) were added to the wells in 100 μL binding buffer. […] The amount of phage binding was determined by assaying horseradish peroxidase activity using o-phenylenediamine dihydrochloride) substrate solution (Sigma Chemical Company, St. Louis, Mo.). EC50 values were calculated as the concentration of soluble ErbB-2/3-Ig required to compete half of the phage off the plate.
Alanine-substituted variants were generated by site-directed mutagenesis according to Kunkel et al., Methods Enzymol. […] The affinities of the alanine-substituted variants for ErbB-3-Ig and ErbB-4-Ig was determined by phage ELISA as described in Example 1. […]

[2] = test system: ErbB-2/3-Ig; assay: Inhibition of 125I-HRG binding by soluble HRG-β1 EGF variants; details: ErbB-2/3-Ig versus ErbB-3-Ig homodimer
Procedure: The affinities of the soluble variants for ErbB-Ig were determined by measuring inhibition of ^125I-HRG binding to ErbB-2/3, -3 and -4 receptor-Ig fusions, as previously described in Example 1.

[3] = biological target: T1, ErbB-3-Ig; assay: Inhibition of 125I-HRG-β1 177-244 binding by soluble Trx-variant fusions; details: soluble thioredoxin (Trx)-variant fusions; HRG-β1 = recombinant HRG-β1 177-244
Procedure: (§1) The affinities of the Trx-variant fusions for ErbB receptor-Ig fusions were determined by measuring inhibition of ^125I-HRG-β1 177-244 binding to ErbB-3-Ig and ErbB-4-Ig. Receptor fusions were coated on plates (Nunc Maxisorp C™ break-apart strip wells, Inter Med, Denmark) via anti-human IgG, as described in Example 1 for phage ELISA. Binding assays were carried out with a constant amount of ^125I-HRG-β1 177-244 (100-300 pM) and varying concentrations (100 pM-4 μM) of unlabeled Trx-variant fusion. Following incubation for 1-3 h at room temperature, plates were washed, and the amount of bound ^125I-HRG-β1 177-244 in each well was counted on a gamma counter (Isodata, ICN Biomedic Systems, Huntsville, Ala.). For the ErbB-3 binding assays, the blocking buffer was TBST (0.025 M Tris-HCl [pH 7.5], 0.15 M NaCl, 0.02% Tween 20™) containing 1% BSA; the binding buffer was RPMI 1640™ cell culture media (Gibco-BRL, Gaithersburg, Md.) containing 2 mM glutamine, 100 U/mL penicillin, 100 μg/mL streptomycin, 10 mM HEPES buffer (pH 7.2), 0.2% BSA; and the wash buffer was TBST. For the ErbB-4 binding assays, PBS containing 1% BSA was used as the blocking and binding buffers, and the wash buffer was PBS containing 0.05% Tween 20™.

[4] = biological target: T2, ErbB-4-Ig (Homo sapiens, UniProt Q15303); assay: as above; details: soluble thioredoxin (Trx)-variant fusions; HRG-β1 = recombinant HRG-β1 177-244
T2 construct: expressed the extracellular domain (ECD) of the ErbB-2, ErbB-3, or ErbB-4 receptor fused to a human IgG constant domain; made in house; host or cells: HEK-293 cells, secreted, Protein A purified
Procedure: as §1

[5] = test system: ErbB-3 or ErbB-4 receptors; assay: Alanine scan of the HRG-β1 EGF-like domain by phage ELISA (FIG. 2); assay type: binding; details: ratio of variant EC50 to wild-type EC50
Procedure: The X axis lists each amino acid that was changed to alanine and its position. […] The EC50 was calculated as the concentration of soluble receptor fusion required to displace 50% of the total amount of phage bound to immobilized receptor fusion. ErbB-3 binding results are shown with black bars, and ErbB-4 binding results are shown with white bars.
Alanine-substituted variants were generated by site-directed mutagenesis according to Kunkel et al., Methods Enzymol. 154:367-82 (1987) (hereinafter “Kunkel mutagenesis”), using uracil-containing single-stranded DNA template prepared from pHRG2-g3. pHRG2-g3, which is described in Example 1, expressed HRG-β1 177-244 fused to pIII 247. A series of oligonucleotides was used to generate a series of constructs that expressed a series of variants in which consecutive residues were mutated to alanine. Phage stocks were prepared from these constructs as described in Example 1, except that PEG(8000) was used to precipitate the phage. The affinities of the alanine-substituted variants for ErbB-3-Ig and ErbB-4-Ig was determined by phage ELISA as described in Example 1.

T1 sequence (P21860 with tags, fused parts or gaps): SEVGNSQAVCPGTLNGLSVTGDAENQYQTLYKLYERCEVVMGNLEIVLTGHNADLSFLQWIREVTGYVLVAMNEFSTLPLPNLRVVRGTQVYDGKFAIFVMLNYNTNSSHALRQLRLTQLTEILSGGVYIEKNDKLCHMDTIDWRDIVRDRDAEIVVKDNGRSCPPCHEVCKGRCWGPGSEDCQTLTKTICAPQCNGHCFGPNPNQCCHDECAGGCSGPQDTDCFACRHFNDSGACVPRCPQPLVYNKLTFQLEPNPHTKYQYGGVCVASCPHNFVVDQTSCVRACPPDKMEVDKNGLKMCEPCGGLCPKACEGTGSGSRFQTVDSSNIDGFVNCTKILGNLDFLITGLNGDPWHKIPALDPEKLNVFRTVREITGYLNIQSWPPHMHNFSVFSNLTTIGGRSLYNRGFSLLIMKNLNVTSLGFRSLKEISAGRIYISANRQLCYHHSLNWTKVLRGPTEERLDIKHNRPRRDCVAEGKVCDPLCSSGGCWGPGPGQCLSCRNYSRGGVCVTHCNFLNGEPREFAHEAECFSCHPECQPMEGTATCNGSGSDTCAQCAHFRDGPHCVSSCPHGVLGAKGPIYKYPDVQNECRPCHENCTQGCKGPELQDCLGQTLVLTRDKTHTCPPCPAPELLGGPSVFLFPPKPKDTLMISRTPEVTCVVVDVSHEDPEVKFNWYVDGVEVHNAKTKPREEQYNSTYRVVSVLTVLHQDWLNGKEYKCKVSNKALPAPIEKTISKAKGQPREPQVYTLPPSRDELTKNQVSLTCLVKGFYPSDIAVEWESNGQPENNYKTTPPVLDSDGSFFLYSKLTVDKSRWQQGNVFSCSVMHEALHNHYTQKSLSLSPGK
T2 sequence (Q15303 with tags, fused parts or gaps): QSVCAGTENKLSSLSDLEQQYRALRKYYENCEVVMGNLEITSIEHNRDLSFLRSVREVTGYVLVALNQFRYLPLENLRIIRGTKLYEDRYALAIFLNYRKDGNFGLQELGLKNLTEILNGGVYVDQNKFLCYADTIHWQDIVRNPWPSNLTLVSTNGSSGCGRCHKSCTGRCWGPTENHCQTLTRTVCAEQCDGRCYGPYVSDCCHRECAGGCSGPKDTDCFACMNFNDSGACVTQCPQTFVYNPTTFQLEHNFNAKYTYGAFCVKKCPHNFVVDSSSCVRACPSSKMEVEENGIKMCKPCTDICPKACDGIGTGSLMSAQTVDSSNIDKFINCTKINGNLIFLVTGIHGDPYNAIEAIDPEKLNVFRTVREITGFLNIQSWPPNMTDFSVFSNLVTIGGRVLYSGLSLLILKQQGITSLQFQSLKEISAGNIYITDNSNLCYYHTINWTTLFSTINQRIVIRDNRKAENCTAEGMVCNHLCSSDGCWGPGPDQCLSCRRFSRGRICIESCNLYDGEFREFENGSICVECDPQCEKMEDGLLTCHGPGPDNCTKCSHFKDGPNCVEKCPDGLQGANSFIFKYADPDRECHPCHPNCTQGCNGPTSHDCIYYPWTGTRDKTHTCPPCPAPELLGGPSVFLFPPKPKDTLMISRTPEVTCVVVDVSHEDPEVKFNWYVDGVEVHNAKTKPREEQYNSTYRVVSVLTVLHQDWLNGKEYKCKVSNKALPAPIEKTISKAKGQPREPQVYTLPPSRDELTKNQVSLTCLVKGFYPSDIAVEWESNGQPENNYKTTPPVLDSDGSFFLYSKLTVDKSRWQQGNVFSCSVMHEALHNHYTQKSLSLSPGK

For “B10: HRG-β1 EGF library B variant: A183D, E184K, K185S, E186R, K187E, T188G, M226I (SHLVKCDKSREGFCVNGGECFMVKDLSNPSRYLCKCPNEFTGDRCQNYVIAS; left off: large carriers; small tags and cut ends) [Variant B10]”, the “increase in ErbB-3 receptor (ErbB-3-Ig) affinity over wild-type HRG-β1 EGF” value ([1]; phage ELISA) was “up to 26 fold”.

B1: HRG8: wild-type HRG-β1 177-228 (minimal EGF-like domain); on phage linked via (GGGS)3 to pIII 323, or soluble (protein)
chain: SHLVKCAEKEKTFCVNGGECFMVKDLSNPSRYLCKCPNEFTGDRCQNYVMASGGGSGGGSGGGSNSQMAQVGDGDNSPLMNNFRQYLPSLPQSVECRPFVFSAGKPYEFSIDCDKINLFRGVFAFLLYVATFMYVFSTFANILRNKES
B1 was tested, and the “higher affinity for the 2/3-heterodimer versus the 3/3 homodimer” value [2] was “approximately 100 fold”.

B2: HRG63: HRG-β1 EGF control variant in which HRG-β1 202-204 of HRG8 are deleted (protein)
chain: SHLVKCAEKEKTFCVNGGECFMVKDPSRYLCKCPNEFTGDRCQNYVMASGGGSGGGSGGGSNSQMAQVGDGDNSPLMNNFRQYLPSLPQSVECRPFVFSAGKPYEFSIDCDKINLFRGVFAFLLYVATFMYVFSTFANILRNKES
B2 was tested, and the “Phage ErbB-3 EC50 (wt)/EC50 (mut)” value ([1]; relative to wild-type HRG-β1 EGF-phage in the same assay run, above 1 = higher affinity, ± SD of 2-4 duplicate runs) was 1.1 ± 0.8.

B3: R220: HRG-β1 variant with R220 mutated to alanine (protein)
chain: SHLVKCAEKEKTFCVNGGECFMVKDLSNPSRYLCKCPNEFTGDACQNYVMASFYKHLGIEFMEAEELY
modifications: left off: large carriers; small tags and cut ends
notes: HRG-β1 variant with R220 mutated to alanine
For B3, the “Sol EC50, binding to the ErbB-3 receptor” value [3] was “no binding” and the “Sol EC50, binding to the ErbB-4 receptor” value [4] was “no binding”.

B4: E184: HRG-β1 variant with E184 mutated to alanine (protein, UniProt Q02297 1-640, looked up, variant E184A)
chain: MSERKEGRGKGKGKKKERGSGKKPESAAGSQSPALPPRLKEMKSQESAAGSKLVLRCETSSEYSSLRFKWFKNGNELNRKNKPQNIKIQKKPGKSELRINKASLADSGEYMCKVISKLGNDSASANITIVESNEIITGMPASTEGAYVSSESPIRISVSTEGANTSSSTSTSTTGTSHLVKCAAKEKTFCVNGGECFMVKDLSNPSRYLCKCQPGFTGARCTENVPMKVQNQEKAEELYQKRVLTITGICIALLVVGIMCVVAYCKTKKQRKKLHDRLRQSLRSERNNMMNIANGPHHPNPPPENVQLVNQYVSKNVISSEHIVEREAETSFSTSHYTSTAHHSTTVTQTPSHSWSNGHTESILSESHSVIVMSSVENSRHSSPTGGPRGRLNGTGGPRECNSFLRHARETPDSYRDSPHSERYVSAMTTPARMSPVDFHTPSSPKSPPSEMSPPVSSMTVSMPSMAVSPFMEEERPLLLVTPPRLREKKFDHHPQQFSSFHHNPAHDSNSLPASPLRIVEDEEYETTQEYEPAQEPVKKLANSRRAKRTKPNGHIANRLEVDSNTSSQSSNSESETEDERVGEDTPFLGIQNPLAASLEATPAFRLADSRTNPAGRFSTQEEIQARLSSVIANQDPIAV
For B4, the “effect of substitution with alanine on affinity for the ErbB-3 or ErbB-4 receptors” value [5] was “two”.

B5: T188: HRG-β1 variant with T188 mutated to alanine (protein, UniProt Q02297 1-640, looked up, variant T188A)
chain: MSERKEGRGKGKGKKKERGSGKKPESAAGSQSPALPPRLKEMKSQESAAGSKLVLRCETSSEYSSLRFKWFKNGNELNRKNKPQNIKIQKKPGKSELRINKASLADSGEYMCKVISKLGNDSASANITIVESNEIITGMPASTEGAYVSSESPIRISVSTEGANTSSSTSTSTTGTSHLVKCAEKEKAFCVNGGECFMVKDLSNPSRYLCKCQPGFTGARCTENVPMKVQNQEKAEELYQKRVLTITGICIALLVVGIMCVVAYCKTKKQRKKLHDRLRQSLRSERNNMMNIANGPHHPNPPPENVQLVNQYVSKNVISSEHIVEREAETSFSTSHYTSTAHHSTTVTQTPSHSWSNGHTESILSESHSVIVMSSVENSRHSSPTGGPRGRLNGTGGPRECNSFLRHARETPDSYRDSPHSERYVSAMTTPARMSPVDFHTPSSPKSPPSEMSPPVSSMTVSMPSMAVSPFMEEERPLLLVTPPRLREKKFDHHPQQFSSFHHNPAHDSNSLPASPLRIVEDEEYETTQEYEPAQEPVKKLANSRRAKRTKPNGHIANRLEVDSNTSSQSSNSESETEDERVGEDTPFLGIQNPLAASLEATPAFRLADSRTNPAGRFSTQEEIQARLSSVIANQDPIAV
With B5 the “effect of substitution with alanine on affinity for the ErbB-3 or ErbB-4 receptors” value [5] was “two and five”.
